Measured values reported in PMC10288612.

These binders were tested against HER-2/neu extracellular domain (ErbB2) (human, UniProt P04626 23-652) (assay: electrochemical bead sandwich assay).

GCAGCGGTGTGGGGGCAGCGGTGTGGGGGCAGCGGTGTGGGGTTTTT (ssDNA) [trimer] and TTTTTTGCAGCGGTGTGGGGGCAGCGGTGTGGGG (ssDNA) [dimer] are within 1.5-fold of each other in Kd: 0.0261 pM for the first, 0.0374 pM for the second.

TTTTTTTTTGCAGCGGTGTGGGG (ssDNA) [monomer-T (monomer-9T)] and GCAGCGGTGTGGGG (ssDNA) [monomer] are within 1.5-fold of each other in Kd: 0.085 pM for the first, 0.121 pM for the second.
